Patent US9518103B2, “Optogenetic probes for measuring membrane potential” (President and Fellows of Harvard College, priority 2014, dated 2016)
Several values for one entry are separate records, joined by “and”; a condition that tells them apart may be missing. Equal values may be shown once. Entries after “also recorded” stand apart in the source; their conditions may differ. Read-outs that look alike come from different tables or passages of the source.

B1: QuasAr1: Archaerhodopsin 3 variant with mutations P60S, T80S, D95H, D106H, F161V; genetically encoded voltage indicator (protein)
chain: MDPIALQAGYDLLGDGRPETLWLGIGTLLMLIGTFYFLVRGWGVTDKDAREYYAVTILVSGIASAAYLSMFFGIGLTEVSVGGEMLDIYYARYAHWLFTTPLLLLHLALLAKVDRVTIGTLVGVDALMIVTGLIGALSHTAIARYSWWLFSTICMIVVLYVLATSLRSAAKERGPEVASTFNTLTALVLVLWTAYPILWIIGTEGAGVVGLGIETLLFMVLDVTAKVGFGFILLRSRAILGDTEAPEPSAGADVSAAD
B2: QuasAr2: Archaerhodopsin 3 variant with mutations P60S, T80S, D95Q, D106H, F161V; genetically encoded voltage indicator (protein)
chain: MDPIALQAGYDLLGDGRPETLWLGIGTLLMLIGTFYFLVRGWGVTDKDAREYYAVTILVSGIASAAYLSMFFGIGLTEVSVGGEMLDIYYARYAQWLFTTPLLLLHLALLAKVDRVTIGTLVGVDALMIVTGLIGALSHTAIARYSWWLFSTICMIVVLYVLATSLRSAAKERGPEVASTFNTLTALVLVLWTAYPILWIIGTEGAGVVGLGIETLLFMVLDVTAKVGFGFILLRSRAILGDTEAPEPSAGADVSAAD

Columns and labels:
[1] = system: cultured rat hippocampal neurons; details: for signal-to-noise ratio (SNR) for single APs: 640 nm; for photobleaching time constant: continuous illumination 640 nm; for broadening of optically recorded AP relative to electrical waveform at 70% maximum depolarization: room temperature, 2 kHz frame rate; for r.m.s. temporal jitter of AP timing relative to patch clamp: sub-frame interpolation
HEK293T cells = experiment: Simultaneous whole-cell patch clamp electrophysiology and fluorescence in HEK cells (brightness, voltage sensitivity, speed); type: cell-based; details: for Brightness (λexc = 640 nm) 0.7 W/cm^2 / Brightness (λexc = 640 nm) 800 W/cm^2 / Sensitivity (ΔF/F per 100 mV): HEK293 cells; for voltage sensitivity (ΔF/F per 100 mV) / brightness relative to wild-type Arch: HEK cells; for brightness compared with corresponding double mutants: eGFP fusions in HEK cells, exc. 640 nm
Protocol: Simultaneous electrophysiology and fluorescence in HEK cells: HEK293T cells (ATCC CRL-11268) were cultured and transfected following standard protocols.^10 Briefly, HEK-293 cells were grown at 37° C., 5% CO2, in DMEM supplemented with 10% FBS and penicillin-streptomycin. Plasmids were transfected using Transit 293T (Mirus) following the manufacturer's instructions, and assayed 48 hours later. The day before recording, cells were re-plated onto glass-bottom dishes (MatTek) at a density of ˜10,000 cells/cm^2.
Cells were supplemented with retinal by diluting stock retinal solutions (40 mM, DMSO) in growth medium to a final concentration of 5 μM, and then returning the cells to the incubator for 0.5-1 hour. All imaging and electrophysiology were performed in Tyrode buffer (containing, in mM: 125 NaCl, 2.5 KCl, 3 CaCl2, 1 MgCl2, 10 HEPES, 30 glucose pH 7.3, and adjusted to 305-310 mOsm with sucrose). A gap junction blocker, 2-aminoethoxydiphenyl borate (50 μM, Sigma), was added to eliminate electrical coupling between cells.
Filamented glass micropipettes (WPI) were pulled to a tip resistance of 5-10 MΩ, and filled with internal solution containing 125 mM potassium gluconate, 8 mM NaCl, 0.6 mM MgCl2, 0.1 mM CaCl2, 1 mM EGTA, 10 mM HEPES, 4 mM Mg-ATP, 0.4 mM Na-GTP (pH 7.3); adjusted to 295 mOsm with sucrose. Pipettes were positioned with a Sutter MP285 manipulator. Whole-cell, voltage and current clamp recordings were acquired using an […] 700B amplifier (Molecular Devices), filtered at 2 kHz with the internal Bessel filter and digitized with a National Instruments PCIE-6323 acquisition board at 5-10 kHz. Data was only acquired from HEK cells having reversal potentials between −10 and −40 mV, access resistance<25 MΩ and membrane resistance>0.5 GΩ.
Simultaneous whole-cell patch clamp recordings and fluorescence recordings were acquired on a home-built, inverted epifluorescence microscope, described previously^10 and described below in “Apparatus”. For step response measurements, voltage clamp electronics were compensated 90-95%. We examined variants of QuasAr1 with mutations at position 95 (Asn, Cys, Gin, His and Tyr) and position 106 (Arg, Asp, Asn, Cys, Glu, His, Lys and Tyr). These experiments confirmed that histidine at position 106 provided undetectable photocurrent, and the best combination of improved voltage sensitivity, and fast kinetics.
We compared the fluorescence, voltage sensitivity, and speed of the QuasArs to wild-type Arch in HEK cells, using epifluorescence microscopy and whole-cell patch clamp electrophysiology. Under low intensity illumination (640 nm, 500 mW/cm^2), QuasAr1 was 15-fold brighter than wild-type Arch, and QuasAr2 was 3.3-fold brighter (FIG. 1B; Methods).

[2] = system: cultured rat hippocampal neurons; experiment: Photocurrent in cultured rat hippocampal neurons; type: cell-based; details: for photocurrent (in words): red (640 nm, 300 W/cm^2, tested up to 900 W/cm^2) or blue (488 nm, 500 mW/cm^2) illumination; for photocurrent: red illumination (640 nm, 300 W/cm^2)
Protocol: FIGS. 4A-4B show the photophysics of QuasArs in mammalian cells. […] Steady state photocurrents were calculated by averaging the current over the last 0.25 seconds of light exposure and subtracting the holding current (cells held at −65 mV) in the dark. These currents hyperpolarized cells by 25±4 mV and 19±3 mV, respectively. […] The double mutants had mutations at the locations of the proton acceptor (Asp95) and proton donor (Asp106) to the Schiff base. QuasAr1 includes mutations D95H, D106H, and QuasAr2 includes mutations D95Q, D106H. The three additional backbone mutations in the QuasArs (P60S, T80S, F161V) increased brightness relative to the double mutants, Fluorescence of each Arch mutant was measured with excitation at 640 nm and emission from 660-760 nm. To control for variation in expression level, fluorescence was normalized by eGFP fluorescence (λexc=488 nm, λem=510−550 nm). Error bars represent s.e.m. for measurements on n=5-10 cells.
Measurements were performed on primary cultures at 13-15 DIV. Experiments were conducted in Tyrode's solution containing 125 mM NaCl, 2.5 mM KCl, 3 mM CaCl2, 1 mM MgCl2, 10 mM HEPES, 30 mM glucose (pH 7.3) and adjusted to 305-310 mOsm with sucrose. Prior to imaging, neurons were incubated with 5 μM all-trans retinal for 30 minutes and then washed with Tyrode's solution.
Synaptic blockers were added to the imaging medium for measurements of single-cell electrophysiology (Arch photocurrents, and single-cell excitability). The blockers comprised NBQX (10 μM, Tocris), D(−)-2-amino-5-phosphonovaleric acid (APS; […]), and gabazine (SR-95531, 20 μM, Tocris). For measurements of channel rhodopsin photocurrents in neurons, TTX (1 μM, Tocris) was included along with the synaptic blockers to prevent recruitment of voltage gated sodium channels. […] Recordings were terminated if membrane resistance changed by >10%. Experiments were performed at 23° C. under ambient atmosphere unless otherwise noted.

[3] = low intensity illumination (640 nm, 500 mW/cm^2)

Molecule	equivalent electrical noise level ([1]; 300 W/cm^2) [mV]	signal-to-noise ratio (SNR) for single APs ([1]; 300 W/cm^2, 1 kHz frame rate)	equivalent electrical noise level ([1]; 800 W/cm^2) [mV]	photobleaching time constant ([1]; 300 W/cm^2) [s]	broadening of optically recorded AP relative to electrical waveform at 70% maximum depolarization ([1]; mean±s.d.)	r.m.s. temporal jitter of AP timing relative to patch clamp [1] [μs]	τdown (+30 mV to −70 mV) % τ1 (HEK293T cells; 23° C.) [%]	τdown (+30 mV to −70 mV) τ1 (HEK293T cells; 23° C.) [ms]	τdown (+30 mV to −70 mV) τ2 (HEK293T cells; 23° C.) [ms]	τup (−70 mV to +30 mV) % τ1 (HEK293T cells; 23° C.) [%]	τup (−70 mV to +30 mV) τ1 (HEK293T cells; 23° C.) [ms]	τup (−70 mV to +30 mV) τ2 (HEK293T cells; 23° C.) [ms]	Brightness (λexc = 640 nm) 0.7 W/cm^2 (HEK293T cells; 23° C.)	Brightness (λexc = 640 nm) 800 W/cm^2 (HEK293T cells; 23° C.)	Sensitivity (ΔF/F per 100 mV) (HEK293T cells; 23° C.) [%]	step response time constant (single or first component) (HEK293T cells; 34° C., step −70 mV to +30 mV) [ms]	voltage sensitivity (ΔF/F per 100 mV) (HEK293T cells) [%]	brightness compared with corresponding double mutants (HEK293T cells)	brightness relative to wild-type Arch (HEK293T cells; high intensity (>100 W/cm^2))	brightness relative to wild-type Arch (HEK293T cells; [3]) [fold]	also measured
B1	4.3	21±2	3.0	440	did not introduce detectable broadening	44	88	0.07	1.9	94	0.05	3.2	15.2	10.3	33	~0.05	32±3	significantly brighter than the corresponding double mutants	2.5 fold	15	signal-to-noise ratio (SNR) for single APs ([1]; 800 W/cm^2, 1 kHz frame rate): 32±4; r.m.s. error in timing ([1]; optically induced APs, soma, sub-frame interpolation vs patch clamp): 54 μs; response faster than fastest previously reported GEVIs (HEK293T cells): more than 10 fold; response time (HEK293T cells): 50 μs; voltage sensitivity compared with QuasAr2 (HEK293T cells): three-fold less than the sensitivity of QuasAr2; step response time constant (single or first component) (HEK293T cells; room temperature (23° C.), step −70 mV to +30 mV): < 0.05 ms and 0.053 ± 0.002 ms; photocurrent (in words) [2]: Neither QuasAr1 nor QuasAr2 generated detectable photocurrent; also recorded: Neither QuasAr1 (n=9 cells) nor QuasAr2 (n=7 cells) generated detectable photocurrents; photocurrent [2]: 0 pA
B2	2.2	41±4	1.5	1020	650±150 μs	61	80	1.0	15.9	68	1.2	11.8	3.4	3.4	90	0.3 ± 0.05	90±2	significantly brighter than the corresponding double mutants	comparable	3.3	single-trial SNR ([1]; 34° C., 640 nm 300 W/cm^2): 41±3; broadening of optically recorded AP relative to electrical waveform ([1]; 34° C., mean±s.d.): 180±120 μs; fidelity of AP reporting (red light phototoxicity test) ([1]; continuous illumination at 300 W/cm^2, 30 min): 100%; weight of first component of bi-exponential step response (HEK293T cells; 23° C.): 68%; weight of second component of bi-exponential step response (HEK293T cells; 23° C.): 32%; step response time constant (second component) (HEK293T cells; 23° C., step −70 mV to +30 mV): 11.8 ± 1.5 ms; step response time constant (second component) (HEK293T cells; 34° C.): 3.2 ± 0.4 ms; weight of first component of bi-exponential step response (HEK293T cells; 34° C.): 62%; weight of second component of bi-exponential step response (HEK293T cells; 34° C.): 38%; τdown (+30 mV to −70 mV) % τ1 (HEK293T cells; 34° C.): 73%; τdown (+30 mV to −70 mV) τ1 (HEK293T cells; 34° C.): 0.3 ms; τdown (+30 mV to −70 mV) τ2 (HEK293T cells; 34° C.): 4.0 ms; τup (−70 mV to +30 mV) % τ1 (HEK293T cells; 34° C.): 62%; τup (−70 mV to +30 mV) τ1 (HEK293T cells; 34° C.): 0.3 ms; τup (−70 mV to +30 mV) τ2 (HEK293T cells; 34° C.): 3.2 ms; photocurrent (in words) [2]: Neither QuasAr1 nor QuasAr2 generated detectable photocurrent; also recorded: Neither QuasAr1 (n=9 cells) nor QuasAr2 (n=7 cells) generated detectable photocurrents; photocurrent [2]: 0 pA
